# Measured values as given in paper PMC12081870 (Communications Biology, 2025).
# Tested on: Las17 PPR-N fragment (residues 300-422)
# Assay: Biolayer Interferometry (BLI), Sla1 SH3 domains to Las17 PPR-N
# Type: binding, Saccharomyces cerevisiae
# Settings: for fold increase in affinity over single SH3 domain: BLI, tandem vs single SH3 domain
# Excerpt: To investigate binding characteristics of the SH3 domains further, Sla1 SH3 protein domains were purified. Three Sla1 SH3 single domains, tandem domains Sla1 SH3#1&2, Sla1 SH3#1&2 W108A (in which the W108A mutation prevents proline motif binding by SH3#2 but not SH3#1) and a fragment with all three SH3 domains were expressed recombinantly and purified. […] This outcome is in line with original research of Rodal and colleagues and with more recent studies of avidity developed by Williamson, which highlighted the importance of tandem binding SH3 domains[13],[27].
# Biolayer Interferometry (BLI) assays were performed using an OctetⓇ R2 (Sartorius). Protein samples were placed into the wells of a polystyrene plate (ProxiPlateTM, Perkin Elmer) and binding measured either with Octet NTA Biosensors or Octet GST Biosensors. Screening assays were performed to determine the optimum loading concentration and time for each binding pair to ensure that the probe was not saturated. All experiments were repeated three times, each time with newly prepared protein. Analysis and visualisation were performed using GraphPad Prism 10.0.2.
molecule,measurement,setting,value
"Sla1 SH3#1-2: SH3#1-2 (aa 5-131), tandem domains; sequence in b253 (protein, 15N-labelled (NMR only); left off: GST, end not stated, cleaved) LGIYRAVYAYEPQTPEELAIQEDDLLYLLQKSDIDDWWTVKKRVIGSDSEEPVGLVPSTYIEEAPVLKKVRAIYDYEQVQNADEELTFHENDVFDVFDDKDADWLLVKSTVSNEFGFIPGNYVEPEN",fold increase in affinity over single SH3 domain,,~100 fold
same,fold increase in affinity over single SH3 domain,listed as tandem Sla1 SH3 domains,> 100 fold
same,Kd,"Biolayer Interferometry, Octet R2, Las17 (aa 300-422), three repeats with newly prepared protein, read-out: binding affinity (Kd)",87 nM
